US9486502B2, “Methods of administering interferon gamma to absorb fluid from the subretinal space” (The United States of America, as represented by the …, priority 2008, dated 2016)
“Also recorded” adds a separate entry of the source.

Legend:
[1] = test system: hfRPE; assay: quantitative real-time PCR of gene expression in IFNγ-treated hfRPE; type: cell-based, human; conditions: for Threshold Cycle (Ct) CFTR / Threshold Cycle (Ct) IFNGR1 / Threshold Cycle (Ct) IFNGR2 / Threshold Cycle (Ct) IRF-1 / Threshold Cycle (Ct) IRF-2 / Threshold Cycle (Ct) PIAS1 / Threshold Cycle (Ct) SOCS3 / Threshold Cycle (Ct) STAT1 / Threshold Cycle (Ct) NOS2A / Threshold Cycle (Ct) IRF-8: IFNγ 25 ng/ml
Procedure: qRT-PCR was performed as previously described in Li, R. et al., 2007, Invest Ophthalmol Vis Sci, 48, 5722-5732—incorporated by reference in its entirety herein. Confluent monolayers of hfRPE cultured in 24-well plates were treated with IFNγ (25 ng/ml) in SFM and harvested at 0 minutes, 30 minutes, 2 hours, 6 hours, 15 hours and 24 hours, in triplicate for each time point. 1 μg total mRNA isolated from the harvested cells (RNeasy Kit, Qiagen) was reverse-transcribed (SuperScript® III First-Strand Synthesis System for RT-PCR, Invitrogen). Real-time PCR (TagMan®, Applied Biosystems) was used to quantify expression of the interferon regulatory factors IRF-1, IRF-2, and IRF-8; signal transducer and activator of transcription 1 (STAT1); suppressor of cytokine signaling 3 (SOCS3); protein inhibitor of activated STAT1 (PIAS1); inducible nitric oxide synthase (NOS2A); IFNγ receptor subunit R1 (IFNGR1); IFNα receptor subunit R1 (IFNAR1); IFNγ receptor subunit R2 (IFNGR2); cystic fibrosis transmembrane conductance regulator (CFTR); and Glyceraldehyde 3-phosphate dehydrogenase (GAPDH). The mRNA concentration of each gene was normalized against GAPDH. qRT-PCR was performed on the ABI Sequence Detection System 7900 (Applied Biosystems).

[2] = test system: hfCHC cells; assay: BrdU incorporation assay, human fetal choroidal cell proliferation; type: cell-based
[3] = test system: hfRPE cells; assay: cyclic AMP assay (cAMP-screen ELISA); type: cell-based, human; conditions: IFNγ 0.5, 5, 50 ng/ml, all time points
Procedure: Intracellular cAMP levels were assayed with a cAMP-screen ELISA system (Applied Biosystems) following the manufacturer's protocol. Briefly, confluent monolayers of hfRPE cells cultured in 24-well plates were starved in SFM for 4 hours and then treated with IFNγ (0.5, 5, and 50 ng/ml), forskolin (10 μM), or forskolin (10 μM) and isobutylmethylxanthine (IBMX; 0.5 mM) for 5 minutes, 30 minutes, 4 hours, 16 hours, or 24 hours. For some of the experiments, cells were treated with IBMX (0.5 mM) for 30 minutes, and then IFNγ or forskolin was added. Cells were lysed and the supernatant collected after centrifugation. Samples were incubated with anti-cAMP antibody and cAMP-AP in a 96-well assay plate; serial dilutions of cAMP served as standards. The plate was incubated with substrate and the chemiluminescence signal measured with a SpectraMax M2 microplate reader (Molecular Devices). The standard curve was obtained by best fit with a weighted 4-parameter logistic curve and the cAMP concentration was calculated and normalized with total protein concentration.

B1: IFNγ: pleiotropic cytokine produced by T- and NK-cells; obtained from Peprotech (protein, UniProt P01579 24-161, looked up)
Interferon gamma: QDPYVKEAENLKKYFNAGHSDVADNGTLFLGILKNWKEESDRKIMQSQIVSFYFKLFKNFKDDQSIQKSVETIKEDMNVKFFNSNKKKRDDFEKLTNYSVTDLNVQRKAIHELIQVMAELSPAAKTGKRKRSQMLFRG
IRF-2 mRNA fold change ([1]; 25 ng/ml IFNγ, hfRPE): 3 fold | up-regulation of IRF-1 transcription ([1]; 25 ng/ml IFNγ, hfRPE): > 400 fold | up-regulation of STAT1 transcription ([1]; 25 ng/ml IFNγ, hfRPE): > 30 fold | Threshold Cycle (Ct) CFTR ([1]; 0 hr): 38.0 | Threshold Cycle (Ct) IFNGR1 ([1]; 0 hr): 26.4 | Threshold Cycle (Ct) IFNGR2 ([1]; 0 hr): 26.0 | Threshold Cycle (Ct) IRF-1 ([1]; 0 hr): 31.1 | Threshold Cycle (Ct) IRF-2 ([1]; 0 hr): 27.6 | Threshold Cycle (Ct) PIAS1 ([1]; 0 hr): 27.0 | Threshold Cycle (Ct) SOCS3 ([1]; 0 hr): 26.9 | Threshold Cycle (Ct) STAT1 ([1]; 0 hr): 26.2 | Threshold Cycle (Ct) CFTR ([1]; 0.5 hr): 36.9 | Threshold Cycle (Ct) IFNGR1 ([1]; 0.5 hr): 26.4 | Threshold Cycle (Ct) IFNGR2 ([1]; 0.5 hr): 26.0 | Threshold Cycle (Ct) IRF-1 ([1]; 0.5 hr): 27.4 | Threshold Cycle (Ct) IRF-2 ([1]; 0.5 hr): 27.6 | Threshold Cycle (Ct) NOS2A ([1]; 0.5 hr): 39.1 | Threshold Cycle (Ct) PIAS1 ([1]; 0.5 hr): 26.9 | Threshold Cycle (Ct) SOCS3 ([1]; 0.5 hr): 25.4 | Threshold Cycle (Ct) STAT1 ([1]; 0.5 hr): 25.8 | Threshold Cycle (Ct) CFTR ([1]; 2 hr): 37.3 | Threshold Cycle (Ct) IFNGR1 ([1]; 2 hr): 26.4 | Threshold Cycle (Ct) IFNGR2 ([1]; 2 hr): 25.1 | Threshold Cycle (Ct) IRF-1 ([1]; 2 hr): 22.2 | Threshold Cycle (Ct) IRF-2 ([1]; 2 hr): 26.0 | Threshold Cycle (Ct) IRF-8 ([1]; 2 hr): 30.9 | Threshold Cycle (Ct) NOS2A ([1]; 2 hr): 35.9 | Threshold Cycle (Ct) PIAS1 ([1]; 2 hr): 27.2 | Threshold Cycle (Ct) SOCS3 ([1]; 2 hr): 24.6 | Threshold Cycle (Ct) STAT1 ([1]; 2 hr): 22.1 | Threshold Cycle (Ct) CFTR ([1]; 6 hr): 38.5 | Threshold Cycle (Ct) IFNGR1 ([1]; 6 hr): 26.3 | Threshold Cycle (Ct) IFNGR2 ([1]; 6 hr): 24.7 | Threshold Cycle (Ct) IRF-1 ([1]; 6 hr): 22.3 | Threshold Cycle (Ct) IRF-2 ([1]; 6 hr): 25.6 | Threshold Cycle (Ct) IRF-8 ([1]; 6 hr): 31.1 | Threshold Cycle (Ct) NOS2A ([1]; 6 hr): 31.6 | Threshold Cycle (Ct) PIAS1 ([1]; 6 hr): 27.1 | Threshold Cycle (Ct) SOCS3 ([1]; 6 hr): 24.0 | Threshold Cycle (Ct) STAT1 ([1]; 6 hr): 21.0 | Threshold Cycle (Ct) IFNGR1 ([1]; 15 hr): 26.5 | Threshold Cycle (Ct) IFNGR2 ([1]; 15 hr): 25.1 | Threshold Cycle (Ct) IRF-1 ([1]; 15 hr): 22.3 | Threshold Cycle (Ct) IRF-2 ([1]; 15 hr): 26.0 | Threshold Cycle (Ct) IRF-8 ([1]; 15 hr): 32.0 | Threshold Cycle (Ct) NOS2A ([1]; 15 hr): 32.7 | Threshold Cycle (Ct) PIAS1 ([1]; 15 hr): 26.8 | Threshold Cycle (Ct) SOCS3 ([1]; 15 hr): 24.8 | Threshold Cycle (Ct) STAT1 ([1]; 15 hr): 21.3 | Threshold Cycle (Ct) CFTR ([1]; 24 hr): 37.9 | Threshold Cycle (Ct) IFNGR1 ([1]; 24 hr): 26.3 | Threshold Cycle (Ct) IFNGR2 ([1]; 24 hr): 25.2 | Threshold Cycle (Ct) IRF-1 ([1]; 24 hr): 22.2 | Threshold Cycle (Ct) IRF-2 ([1]; 24 hr): 26.1 | Threshold Cycle (Ct) IRF-8 ([1]; 24 hr): 31.9 | Threshold Cycle (Ct) NOS2A ([1]; 24 hr): 33.5 | Threshold Cycle (Ct) PIAS1 ([1]; 24 hr): 26.7 | Threshold Cycle (Ct) SOCS3 ([1]; 24 hr): 24.9 | Threshold Cycle (Ct) STAT1 ([1]; 24 hr): 21.2 | SOCS3 mRNA levels ([1]; IFNγ-treated hfRPE): increased | effect on CFTR mRNA expression ([1]; IFNγ-treated hfRPE): No effect; also recorded: small decrease | effect on IFNGR1 expression ([1]; IFNγ-treated hfRPE): No effect | effect on PIAS1 expression ([1]; IFNγ-treated hfRPE): No effect; also recorded: does not affect | increase of SOCS3 mRNA ([1]; IFNγ-treated hfRPE): 7 fold | IRF-8 mRNA detectability ([1]; after 2 hours of IFNγ, constitutive level under detection): became detectable | increase in IFNGR2 expression ([1]; after 6 hours of IFNγ): ≈ 2 fold | NOS2A expression ([1]; after 6 hours of IFNγ, constitutive levels undetectable): significantly up-regulated | effect on hfCHC (human fetal choroidal) cell proliferation [2]: stimulatory effect | effect on total intracellular cAMP [3]: no apparent effect
